Assay results published in the nanobody polyreactivity screen of Harvey et al. (2022).

Assay: yeast display, Sf9 membrane polyspecificity reagent, FACS + sequencing; frameworks hold sequencing errors
Summary of the method: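 In a synthetic yeast display library (Saccharomyces cerevisiae BJ5465), nanobody expression was induced with galactose for 36–48 hours. FACS gates were set low and high (top ~1%) using anti-HA fluorescence for expression and streptavidin fluorescence for binding of the Sf9 membrane reagent. Each polyreactivity label is drawn from the gate of origin.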

Sequence: QVQLVESGGGLVQAGGSLRLSCAASGSIFVVYTMGWYRQAPGKERELVAAITQNGGSSTYYADSVKGRFTISRDNAKNTVYLQMNSLKPEDTAVYYCNKDILSPVVRIFKYGYDMDYWGQGTQVTVSS
- polyreactivity (PSR sort gate): low polyreactivity

Sequence: QVQLVESGGGLVQAGGSLRLRCAASGSIFNSYAMGWYRQAPGKERELVAAISIRGTRTYYADSVKGRFTISRDNAKNTVYLQMNSLKPEDTAVYYCAADASYTEGMDYWGQGTQVTVSS
- polyreactivity (PSR sort gate): high polyreactivity

Sequence: QVQLVESGGGLVQSGGSLRLSCAASGINFLYYAMGWYIQAPGKERELVARINRSGGSTYYADSVKGRFTISRDNAKYTVYLQMNSLKPEDSAVYYCAADYLYRSPAYEHYYWGQGTQVTVSS
- polyreactivity (PSR sort gate): high polyreactivity

Sequence: HVPLVESGGGIVQAGGRMRLSCAASGSTFTEYAMGGYRQAPGKQREWVAGISSDGSTKYADSVKGRFTISRDNAKNTVYLQMNSLNPEDSAVYYCNKDQSDAKFDYWGQGTQVTVSS
- polyreactivity (PSR sort gate): low polyreactivity

Sequence: QVQLVESGGCLLQAGGSLRLSCAASGFTFRKNAMGWYRDAPGKERQLVAAISSGTSTYYADSVKVRFTISRDNAKNTVYLQMNSLKPEDTAVYYCAAARYRTDDYCGQGTQVTVSS
- polyreactivity (PSR sort gate): high polyreactivity

Sequence: QVQLVESGVGLVQAGGSLRLSCAASGSIFTYYAMGWYRQAPGKEREFVAGISWSGGRTYYADSVKGRFTISRDNAKNTVYLQMNSLKPEDTAVYYCNRQYRYIPSPCDYWGQGTQVTVSS
- polyreactivity (PSR sort gate): low polyreactivity

Sequence: QVQLVESGGGLVQAGGSLRLICAASGSIFRYAMGWYRQAPGKERELVAAINRSGGSTYYADSVKGRFTISRDNAKNTVYLQMNSLKTEDTEVYYCAKDLRYGVNYRLVNRYGYWGQGTQVTVSS
- polyreactivity (PSR sort gate): high polyreactivity

Sequence: QVQLVESGGGLVHAGGSLRLSCAASGSTLQVYAMGWYREAPGIERELVAVITFSGGRTYYADSVKGRFTISRDTAKNTVYLQMNSLKPEDTADYYPAARYYWGQGTQVTVSS
- polyreactivity (PSR sort gate): high polyreactivity

Sequence: QVHLVESGGGLVQAGRSLRLSCAASGRTSAYYAMGWYRQAPGKERELDAGITRGGRTNYADSVKGRFTISRDNAKNTVYLQMNSLKPEDTAVYYCAAKYGYYWNSRTSGYWGQGTQVTVSS
- polyreactivity (PSR sort gate): high polyreactivity

Sequence: QVQLVESGGGLVQAGGSLRLSCAGSGSIYSYNAMGWYRQAPGKERELVAAIDWSGGSTYYADSVKGRFTLSRDNAKNTVYLQMNSLKPEDTAVYYEYDYWGQGTQVTVSS
- polyreactivity (PSR sort gate): low polyreactivity

Sequence: QVQLVESGGGLVQAGGSLRLSCAASGFTFRYYAMVWYRQAPGKERELVAAISYSGGSTYYADSVKGRFTISRDNAKNTVYLQMNCLKPEDTAVYYCAAYYPYSREMGYWGQGTQVTVSS
- polyreactivity (PSR sort gate): high polyreactivity

Sequence: QVQLVESGGGLVQAGGSLRLSCAASGRIFGPYAMGWYRQAPGKERELVATITWSGVSTYYADSVKGRFTISRDNAKNTVYLQMNSLKPEDTAVYYCNAKRTGQWFLHVPVYYWGQGTQVTVSS
- polyreactivity (PSR sort gate): low polyreactivity

Sequence: QVQLVESGGGLVQAGGSLRLSCAASGIIFYVNAMGWYRQAPGKERELVAVISRRGGSTNYADSVKGRFTISRDNAKNTVYLQMNSLKPEDTAVYYCAAGYRTAYRGSSYYYWGQGTQVTVSS
- polyreactivity (PSR sort gate): high polyreactivity

Sequence: QVQLVESGGGLVQAGGSLRLSCAASGRIFKGYAMGWYRKAPGKERELVAAITISGGSTYYADSVKGRFTISRDNAKNTVYLQMNSLIPEDTAVFYFAARKFVYWYGMEYWGQGTQVTVSS
- polyreactivity (PSR sort gate): low polyreactivity

Sequence: QVQLVESGGGLVQAGGSLRLSCAASGFTFKTYVMGWYRQAPGKERELVAAISRRGGSTHYADSVKGRFTISRDNAKNTVYLQMNSLKPEDTAVYYCARRWYSTWWYGYWGQGTQVTVSS
- polyreactivity (PSR sort gate): high polyreactivity

Sequence: QVQLVESGGGLVQAGGSLRLSCAASGRIFKYYAMGWYRQAPGKERELVAAISWTGVSTYYADSVKGRFTISRDNAKNTVYLQMNSLKPEDTAVYYCNAQSYRYPKDDYWGQGTQVTVSS
- polyreactivity (PSR sort gate): high polyreactivity

Sequence: QVQLQESGGGLVQAGGSLRLSCAASGTISTDSYMGWYRQAPGKESKFVATIGYGGITYYADSVKGRSTISRDSAKNTVYLQMNILKPEDTAVYYCAVNSYYPDHYWYWGRGTQVTVSS
- polyreactivity (PSR sort gate): high polyreactivity

Sequence: QVQLVESGGGLVQAGGSLRLSCAASGRTFSDYVMGWYRQAPGKERELVAAINIGGGSTYYADSVKGRFTISRDNAKNTVYLQMNSLKPEDTAVYYCAAESAGSYLDYYWAYGYWGQGTQVTVSS
- polyreactivity (PSR sort gate): low polyreactivity

Sequence: QVQLVESGGGLVQAGGSLRLSCAASGSIFVTNAMGWYRQAPGKERELVAAIRWSGDSTYYADSVKGRFTISRDNAKNTVYLQMKSLKPEDTAVYYCDAESFRYIRLNYKYGDYYWGHGTQVTVSS
- polyreactivity (PSR sort gate): high polyreactivity

Sequence: QVHLVESGGGLVQAGGSLRLSCAASGSIFTRYTMGWYRQAPGKERELVAAITRSGGSTYYADSVKGRFTISRDNAKNTVYLQMNSLKPEDTAVYYCAARVRLATGARDYWGQGTQVTVSS
- polyreactivity (PSR sort gate): high polyreactivity

Sequence: QVQLVESGGGLVQAGGSLRLSCAASGRIVCYYDMGWSRQAHGKERELVATITFGGGSTYYADSVKGRFTISRDNAKNTVYLQMNSLKPEDTAVYYCAADSGYLGIYGDEYSSGQGTQVTVSS
- polyreactivity (PSR sort gate): low polyreactivity

Sequence: QVQLVESGGGLVQAGGSLRLSCAASGSTFYGYALGWYRQAPGKERELVAAITRSGGSTYYADSVKGRFTISRDNAKNTVYLQMNSLKPEDTEVYYCNKYGYKGGVGYDYWGQGTQVTVSS
- polyreactivity (PSR sort gate): high polyreactivity

Sequence: QVQLVESGGGLVQAGGSLRLSCAASGSTSQSNAMGRYRQAPGKERELVAAISWSGTSTYYADSVKGRFTISRDNAKNTVYLQMNSLKPEDTAVYYCAADYIFDYDYWGQGTQVTVSS
- polyreactivity (PSR sort gate): low polyreactivity

Sequence: QVQLVESGGGLVQAGGSLRLSCAASGRTFMKNTMGWYIQAPGKERELVAVITRNGDSTYADSVKGRFTISRDNAKNTVYLQKNSLKPEDTAVFYCNVGSYRYRRYDYWGQGTQVTVSS
- polyreactivity (PSR sort gate): high polyreactivity

Sequence: QVQLVESGGGLVQAGGSLRLSCAASGSIFTHNAMGWYRQAPGKERELVAAISSGGSTNYADSVKGPFTISRDNAKNTVYLQMNSLKPEDTAVYYCAKSIDGWYWRRRRYDYWGQGTQVTVSS
- polyreactivity (PSR sort gate): low polyreactivity

Sequence: QVQLVESGAGLVQAGGSLRLSCAPSGFTFSWYVMGWYRQAPGKERELVAAITSSGGRTYYADSVKGRFTISRDNAKNTVYLQMNSLKPEDTAVYYCAARFKRGLGDSWGQGTQVTVSS
- polyreactivity (PSR sort gate): high polyreactivity

Sequence: QVQLVESGGGLVQAGGSLRLSCASSGFIFYYNAMGWYRQAPVKERELVAAISYGGGSTYYADSVKGRFTISRDNAKNTVYLQMNSLKPEDTAVYYCSARVYWWNASLAGNYWGQGTQVTVSW
- polyreactivity (PSR sort gate): low polyreactivity

Sequence: QVQLVESGGGLVQAGGSIRLSCAASGFIFQRYSMGWYRQAPGKERELVAAISSSGGSTYYADSVKGRFTISRDNAKNTVYLQMNSLKPEDTAVYYCAARVPPRTLAYYYWGQGTQVTVSS
- polyreactivity (PSR sort gate): high polyreactivity

Sequence: QVQLVESGGGLVQAGGSLRLSCAASGITFQWNAMGWYRQAPGKERELVAAISSGTSTYYADSVKGRFTISRDNAKNTVYLQMNSLKPEDTAVYYCNAVKSWGHPGRYYWGQGTQVTVSS
- polyreactivity (PSR sort gate): high polyreactivity

Sequence: QVQLVESGGGLVQAGGSLRLSCAASGSISRYYAMGWYRQAPGKERELVAAISSNGGSTYYADSVKGRFTISRDNAKNTVYLQMNSLKPEDTAVYYCNAYYVGYIRYWTNKLVDYWGQGTQVTVSS
- polyreactivity (PSR sort gate): high polyreactivity

Sequence: QVQLVESVGGLVKAGGSLRLSCAASGFIFYRYTMGWYRQDPGKERELVAGISSRGTRTYYADSVKGRFTISRDNAKNTVYLQMNSLKPEDTAVYYCAAVLTQPKKVNYWGQGTQVTVSS
- polyreactivity (PSR sort gate): high polyreactivity

Sequence: QVHLVESGGGLVQAGGSLRLSCAASGRTFWYYAMGWYRPAPGKERELVAAITRTGGSTYYADSVKGRFTISRDYAKNTVYLQMNSLKPEDTAVYYCARKYSYPVVAPSDYYWGQGTQVTVSS
- polyreactivity (PSR sort gate): high polyreactivity

Sequence: QVQLVESGGGLVQAGGSLRLSCAASGRILLRYAMGWYRQAPGQERELVAAISQRGGRTYYADSVKGRFTISRDNAKNTVNLQMNSLKPEDTAVYYCAAASQQRSPRYGYWGQGTQVTVSS
- polyreactivity (PSR sort gate): high polyreactivity

Sequence: QVQLVESGGGLVQAGGSLRLSCAASGSTFVYNAMGWYRQAPGKERELVAAIRTTGTGTYYADSVKGRFTISRDNAKNTVYLQMNSLKPEDTAVYYCATDYNYWKLDFGYWGQGTQVTVSS
- polyreactivity (PSR sort gate): high polyreactivity

Sequence: QVKLVESGGGLVQAGGSLRLSCAASGFIFPDYAMGWYRQAPGKERELVAAITSSGGRTYYADSVKGRFTISRDNAKNTVYLQMNSLKPEDTAVYYCAARTISPRGYGSDYWGQGTQVTVSS
- polyreactivity (PSR sort gate): high polyreactivity

Sequence: QVQLVESGGGLVQAGGSLRLSCAASGFIFSFNAMGWYRQAPGKERELVAAISRRGGRTYYADSVKGRFTISRDNAKNTVYLQMNSLKPEDTAVYYCAAQGRDSTPHGYWGQGTQVTVSS
- polyreactivity (PSR sort gate): high polyreactivity

Sequence: QVQLEESGRGLVQAGVSLRLSCAASGSTFYRYAMGWYRQAPGKERELVAANSQSGARTYYADSVKGRFTISRDNAKNTVYLQINSLKPEDTAVYYCAAYPVVNEFDYWGQGTQVTVSS
- polyreactivity (PSR sort gate): high polyreactivity

Sequence: QVQLQESGDGLVQAGGSLRLSCAASGNIYDADIMGWYRQAPGKERELVTSITDGGSTNYADSVKGRFTISRDNAKNTVYLQMNSLKPEDTAVYYCAAIAYPDIPTSFDYNSDYSYWGQGTQVTVSS
- polyreactivity (PSR sort gate): low polyreactivity

Sequence: QVKLVESGAGLVQAGGSLRLSCAASGITFYWYAIGWYRPAPGKEMELVADITSSGSSTYYADSVKGRFTISRDNAKNTVYLQMNSLKPEDTAVYYCNARPGRRSLRSRTYDYWGQGTQVTVSS
- polyreactivity (PSR sort gate): high polyreactivity

Sequence: QVQLVESGGGLVQAGGSLRLSCAASGSIFLAKAMGWYRQAPGKERELVAAINYADSVKGRFTISRDNAKNTVYLQMNSLKPEDTAVYYCYSKYDYWGQGTQVTVSS
- polyreactivity (PSR sort gate): low polyreactivity

Sequence: QVQLVESGRGLVQAGGSLRLSCAASGITFLDYAMGWYRQAPGKERELVAAITKSGGSTYYADSVKGRFTISRDNAKNTVFLQMNSLKPEDTAVYYCAKGRHPLWVEQPYEFDYWGQGTQVTVSS
- polyreactivity (PSR sort gate): low polyreactivity

Sequence: QVQLVESGGGLVQAGGSHRLSCAASGSIFRGYAMGWSIQAPGKERELVAAISWRGTSTYYADSVKGRFTISRDNAKNTVYLQMNSLKPEDTAVYYCAADLDGDYYYYGQGNDYWGQGTQVTVSS
- polyreactivity (PSR sort gate): low polyreactivity

Sequence: QVQLVESGGGLVQAGGSLRLSCAASGSIFRRYAMGWYRQAPGKERELVAAISWRGDSTYYADSVKGRFTISRDNAKNTVYLQMNSLKPEDTAVYYCNSLIGANPLCYAARYDYWGQGTQVTVSS
- polyreactivity (PSR sort gate): low polyreactivity
